Measurements: patent US20230330254A1, “ANTI-GLP1R ANTIBODY-TETHERED DRUG CONJUGATES COMPRISING GLP1 PEPTIDOMIMETICS AND USES THEREOF” (Regeneron Pharmaceuticals, Inc., priority 2022, published 2023)
Like-named read-outs stand apart in the source and are kept apart here.

Key:
Assay in all cases: cell-based or functional assay
[1] = target: full-length human glucagon receptor on HEK293/CRE-Luc/hGCGR cells (human) (UniProt P47871)
[2] = target: full-length cynomolgus GLP1R on HEK293/CRE-Luc/mfGLP1R cells (cynomolgus) (UniProt F8V479)
[3] = target: full-length human glucagon-like peptide 2 receptor on HEK293/CRE-Luc/hGLP2R cells (human) (UniProt O95838)
Chain of full-length human glucagon-like peptide 2 receptor on HEK293/CRE-Luc/hGLP2R cells (human) (O95838 whole entry): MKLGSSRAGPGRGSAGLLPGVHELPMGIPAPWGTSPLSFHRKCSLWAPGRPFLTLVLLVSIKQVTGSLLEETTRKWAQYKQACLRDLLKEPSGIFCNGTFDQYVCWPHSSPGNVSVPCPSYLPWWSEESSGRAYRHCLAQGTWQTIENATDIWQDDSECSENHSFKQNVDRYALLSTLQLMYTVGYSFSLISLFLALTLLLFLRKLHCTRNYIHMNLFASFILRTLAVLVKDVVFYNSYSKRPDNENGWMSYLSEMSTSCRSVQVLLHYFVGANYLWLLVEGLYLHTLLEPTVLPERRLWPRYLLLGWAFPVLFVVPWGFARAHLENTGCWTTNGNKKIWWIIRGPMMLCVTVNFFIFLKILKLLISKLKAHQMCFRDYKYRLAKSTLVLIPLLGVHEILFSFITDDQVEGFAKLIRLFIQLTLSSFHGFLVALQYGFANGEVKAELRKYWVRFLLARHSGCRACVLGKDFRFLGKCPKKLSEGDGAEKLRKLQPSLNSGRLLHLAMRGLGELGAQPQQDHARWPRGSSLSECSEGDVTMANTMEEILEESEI

[4] = target: full-length human GLP1R on HEK293/CRE-Luc/hGLP1R cells (human) (UniProt P43220)
Chain of full-length human GLP1R on HEK293/CRE-Luc/hGLP1R cells (human) (P43220 24-463): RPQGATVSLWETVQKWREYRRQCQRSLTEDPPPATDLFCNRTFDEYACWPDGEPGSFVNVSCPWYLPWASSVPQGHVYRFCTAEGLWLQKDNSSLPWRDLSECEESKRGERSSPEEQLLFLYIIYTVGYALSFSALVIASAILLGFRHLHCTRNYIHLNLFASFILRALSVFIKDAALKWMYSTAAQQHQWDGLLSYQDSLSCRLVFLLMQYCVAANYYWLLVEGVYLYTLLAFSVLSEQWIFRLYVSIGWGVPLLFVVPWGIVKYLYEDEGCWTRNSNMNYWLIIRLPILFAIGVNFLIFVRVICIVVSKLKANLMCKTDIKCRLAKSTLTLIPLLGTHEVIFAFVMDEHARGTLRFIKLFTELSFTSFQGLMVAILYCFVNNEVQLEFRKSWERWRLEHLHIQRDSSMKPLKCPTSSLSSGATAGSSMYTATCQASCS

[5] = target: full-length human gastric inhibitory polypeptide receptor on HEK293/CRE-Luc/hGIPR cells (human) (UniProt P48546)
Chain of full-length human gastric inhibitory polypeptide receptor on HEK293/CRE-Luc/hGIPR cells (human) (P48546 22-466): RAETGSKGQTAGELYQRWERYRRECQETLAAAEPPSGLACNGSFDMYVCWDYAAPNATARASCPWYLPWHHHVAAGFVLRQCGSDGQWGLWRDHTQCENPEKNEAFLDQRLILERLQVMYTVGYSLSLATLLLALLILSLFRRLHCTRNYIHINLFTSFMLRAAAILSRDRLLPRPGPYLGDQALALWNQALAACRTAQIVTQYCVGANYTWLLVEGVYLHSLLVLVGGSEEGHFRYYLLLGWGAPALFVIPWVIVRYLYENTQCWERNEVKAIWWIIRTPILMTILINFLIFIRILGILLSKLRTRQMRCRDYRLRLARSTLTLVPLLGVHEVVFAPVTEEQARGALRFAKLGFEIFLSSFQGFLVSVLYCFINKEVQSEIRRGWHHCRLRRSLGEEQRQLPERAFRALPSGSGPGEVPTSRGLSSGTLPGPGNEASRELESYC

[6] = target: full-length human glucagon-like peptide 2 receptor on HEK293/CRE-Luc/hGLP2R cells (human) (UniProt O95838); remark: listed apart in the source
[7] = target: full-length human gastric inhibitory polypeptide receptor on HEK293/CRE-Luc/hGIPR cells (human) (UniProt P48546); remark: listed apart in the source
[8] = target: full-length human glucagon receptor on HEK293/CRE-Luc/hGCGR cells (human) (UniProt P47871); remark: listed apart in the source
[9] = target: full-length cynomolgus GLP1R on HEK293/CRE-Luc/mfGLP1R cells (cynomolgus) (UniProt F8V479); remark: listed apart in the source
Target sequence in this assay (F8V479 entry or part of it): as the sequence (P43220 24-463) above, with S112N, F120S, S202G, L205V, L237F, W241R, I249V counted along it

[10] = target: full-length human GLP1R on HEK293/CRE-Luc/hGLP1R cells (human) (UniProt P43220); remark: listed apart in the source

Chain of human GCG (glucagon) (P01275 53-81 limits assumed): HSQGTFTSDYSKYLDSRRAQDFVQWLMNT
Chain of human GLP2 (P01275 146-178 limits assumed): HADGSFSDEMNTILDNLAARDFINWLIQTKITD
Chain of full-length human glucagon receptor on HEK293/CRE-Luc/hGCGR cells (human) (P47871 26-477): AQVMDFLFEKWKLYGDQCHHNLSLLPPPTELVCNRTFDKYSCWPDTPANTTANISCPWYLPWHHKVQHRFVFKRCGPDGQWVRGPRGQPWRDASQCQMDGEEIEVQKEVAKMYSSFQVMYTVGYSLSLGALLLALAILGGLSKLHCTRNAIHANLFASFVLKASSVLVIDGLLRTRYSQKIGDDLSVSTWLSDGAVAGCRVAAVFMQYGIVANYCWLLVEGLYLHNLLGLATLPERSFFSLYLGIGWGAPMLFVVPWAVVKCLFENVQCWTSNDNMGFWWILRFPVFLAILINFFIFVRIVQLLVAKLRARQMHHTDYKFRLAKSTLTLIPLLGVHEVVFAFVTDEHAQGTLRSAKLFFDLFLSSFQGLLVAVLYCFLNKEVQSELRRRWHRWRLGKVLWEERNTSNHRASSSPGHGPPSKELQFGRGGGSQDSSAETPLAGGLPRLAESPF

Substance | CRE-luc EC50 [1] [µM] | CRE-luc EC50 [2] [µM] | CRE-luc EC50 [3] [µM] | CRE-luc EC50 [4] [µM] | CRE-luc EC50 [5] [µM] | CRE-luc EC50 [6] [µM] | CRE-luc EC50 [7] [µM] | CRE-luc EC50 [8] [µM] | CRE-luc EC50 [9] [µM] | CRE-luc EC50 [10] [µM]
human GLP1 (reference ligand) (from UniProt P01275 98-128) | > 0.03 |  | > 0.03 |  | > 0.03 | > 0.2 | > 0.2 | > 0.2 |  | 
human GLP2 (from UniProt P01275 146-178) (ligand) | > 0.03 |  |  | > 0.03 | > 0.03 |  | > 0.2 | > 0.2 | > 0.2 | > 0.2

The next lines start with the values.

CRE-luc EC50 [1] [µM] | CRE-luc EC50 [2] [µM] | CRE-luc EC50 [3] [µM] | CRE-luc EC50 [4] [µM] | CRE-luc EC50 [5] [µM] | CRE-luc EC50 [6] [µM] | CRE-luc EC50 [7] [µM] | CRE-luc EC50 [8] [µM] | CRE-luc EC50 [9] [µM] | CRE-luc EC50 [10] [µM] | Substance
> 0.3 | > 0.3 | > 0.3 | > 0.3 | > 0.3 |  |  |  |  |  | Isotype control Ab (unconjugated; Q tag none or not stated) (antibody)
 |  | > 0.03 |  | > 0.03 | > 0.2 | > 0.2 |  |  |  | human GCG (glucagon) (from UniProt P01275 53-81) (ligand)
> 0.03 |  | > 0.03 | > 0.03 |  | > 0.2 |  | > 0.2 | > 0.2 | > 0.2 | human GIP (from UniProt P09681 52-93) (ligand)
